The values below come from the supplement of paper PMC9112550, “Optimization of the antimicrobial peptide Bac7 by deep mutational scanning” (BMC Biology, 2022).
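Note: peptides expressed intracellularly from a pBAD plasmid library in pooled LB shake-flask culture, induced with 0.3% L-arabinose, DNA abundance read by NGS, three biological replicates, DESeq2 with apeglm shrinkage.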

The data set relates to Escherichia coli TOP10. Nature of the data set: shrunken log2 fold change of peptide-encoding DNA abundance (4.5 h post-induction vs induction); higher = less antimicrobial activity (less host growth inhibition). As to conditions: time post-induction: 4.5 h; library: site-saturation at positions 5, 18, 19, 20.
With RRIRERPPRLPRPRPRPELWPRP, the “shrunken log2 fold change” value came out at 0.273.

With RRIRHRPPRLPRPRPRPNVSPRP, the “shrunken log2 fold change” value is -0.0959.

As to RRIRKRPPRLPRPRPRPNRKPRP, the “shrunken log2 fold change” value amounted to 0.0065.

RRIRYRPPRLPRPRPRPQNKPRP: the “shrunken log2 fold change” value is -0.969.

Consider RRIRTRPPRLPRPRPRPDRIPRP, for which the “shrunken log2 fold change” value amounted to 0.00097.

Consider RRIRYRPPRLPRPRPRPGMHPRP, for which the “shrunken log2 fold change” value was -0.339.

Consider RRIRARPPRLPRPRPRPIDMPRP, for which the “shrunken log2 fold change” value was -0.0819.

For the sequence RRIRCRPPRLPRPRPRPPVCPRP, the “shrunken log2 fold change” value came out at 0.222.

With RRIRRRPPRLPRPRPRPMKIPRP, the “shrunken log2 fold change” value stood at 0.186.

RRIRHRPPRLPRPRPRPFNLPRP: the “shrunken log2 fold change” value was -0.189.

Turning to RRIRPRPPRLPRPRPRPHEHPRP, the “shrunken log2 fold change” value was 0.0125.

As to RRIRSRPPRLPRPRPRPNDCPRP, the “shrunken log2 fold change” value was -0.00188.

Take RRIRFRPPRLPRPRPRPSHVPRP: the “shrunken log2 fold change” value is -0.281.

Turning to RRIRNRPPRLPRPRPRPATKPRP, the “shrunken log2 fold change” value was -0.0346.

For the sequence RRIRARPPRLPRPRPRPYGIPRP, the “shrunken log2 fold change” value is -0.00196.

RRIRNRPPRLPRPRPRPQNGPRP: the “shrunken log2 fold change” value amounted to 0.00902.

Consider RRIRGRPPRLPRPRPRPWDIPRP, for which the “shrunken log2 fold change” value was 0.212.

Consider RRIRHRPPRLPRPRPRPYIFPRP, for which the “shrunken log2 fold change” value is -0.446.

Turning to RRIRHRPPRLPRPRPRPWPDPRP, the “shrunken log2 fold change” value was -0.0062.

As to RRIRYRPPRLPRPRPRPTLCPRP, the “shrunken log2 fold change” value is -0.239.

As to RRIRDRPPRLPRPRPRPFSAPRP, the “shrunken log2 fold change” value is -0.36.

Regarding RRIRPRPPRLPRPRPRPAGGPRP, the “shrunken log2 fold change” value worked out at 0.269.

Consider RRIRWRPPRLPRPRPRPHINPRP, for which the “shrunken log2 fold change” value is -0.491.

RRIRPRPPRLPRPRPRPETRPRP: the “shrunken log2 fold change” value was 0.187.

Consider RRIRMRPPRLPRPRPRPYMPPRP, for which the “shrunken log2 fold change” value is -0.312.

Consider RRIRFRPPRLPRPRPRPTIRPRP, for which the “shrunken log2 fold change” value is -0.41.

Take RRIRGRPPRLPRPRPRPVGHPRP: the “shrunken log2 fold change” value came to 0.453.

On to RRIRDRPPRLPRPRPRPERVPRP, for which the “shrunken log2 fold change” value stood at 0.388.

In the case of RRIRGRPPRLPRPRPRPGWCPRP, the “shrunken log2 fold change” value turned out to be 0.484.

Take RRIRDRPPRLPRPRPRPMYMPRP: the “shrunken log2 fold change” value was -0.00623.

Take RRIRMRPPRLPRPRPRPQAWPRP: the “shrunken log2 fold change” value is -0.0331.

Consider RRIRYRPPRLPRPRPRPSADPRP, for which the “shrunken log2 fold change” value is -0.18.

For RRIRIRPPRLPRPRPRPRHLPRP, the “shrunken log2 fold change” value is -0.458.

Consider RRIRCRPPRLPRPRPRPWDGPRP, for which the “shrunken log2 fold change” value was determined as 0.0877.

As for RRIRDRPPRLPRPRPRPHQVPRP, the “shrunken log2 fold change” value was -0.00776.

Take RRIRGRPPRLPRPRPRPWFEPRP: the “shrunken log2 fold change” value was -0.111.

In the case of RRIRMRPPRLPRPRPRPKIYPRP, the “shrunken log2 fold change” value is -0.107.

As to RRIRNRPPRLPRPRPRPQGFPRP, the “shrunken log2 fold change” value is -0.00956.

For RRIRYRPPRLPRPRPRPTHGPRP, the “shrunken log2 fold change” value was -0.1.

Regarding RRIRNRPPRLPRPRPRPSNQPRP, the “shrunken log2 fold change” value is -0.299.

On to RRIRIRPPRLPRPRPRPPLNPRP, for which the “shrunken log2 fold change” value is -0.227.

As to RRIRRRPPRLPRPRPRPWMQPRP, the “shrunken log2 fold change” value was 0.0811.

For RRIRLRPPRLPRPRPRPWGEPRP, the “shrunken log2 fold change” value is -0.0317.

As to RRIRWRPPRLPRPRPRPDHSPRP, the “shrunken log2 fold change” value was -0.198.

Consider RRIRDRPPRLPRPRPRPICIPRP, for which the “shrunken log2 fold change” value stood at 0.0464.

On to RRIRHRPPRLPRPRPRPPPHPRP, for which the “shrunken log2 fold change” value stood at 0.703.

In the case of RRIRQRPPRLPRPRPRPEMSPRP, the “shrunken log2 fold change” value came out at 0.161.

As to RRIRYRPPRLPRPRPRPNITPRP, the “shrunken log2 fold change” value is -1.03.

Turning to RRIRYRPPRLPRPRPRPIYWPRP, the “shrunken log2 fold change” value is -0.204.

In the case of RRIRMRPPRLPRPRPRPSACPRP, the “shrunken log2 fold change” value stood at 1.99.

For the sequence RRIRMRPPRLPRPRPRPRMIPRP, the “shrunken log2 fold change” value was -0.0577.

Regarding RRIRRRPPRLPRPRPRPFRHPRP, the “shrunken log2 fold change” value was -0.212.

Consider RRIRLRPPRLPRPRPRPTVQPRP, for which the “shrunken log2 fold change” value was -0.191.

Regarding RRIRWRPPRLPRPRPRPPMFPRP, the “shrunken log2 fold change” value was -0.00833.

Regarding RRIRCRPPRLPRPRPRPSKGPRP, the “shrunken log2 fold change” value is -0.212.

On to RRIRARPPRLPRPRPRPITEPRP, for which the “shrunken log2 fold change” value is -0.38.

Take RRIRKRPPRLPRPRPRPSDAPRP: the “shrunken log2 fold change” value was -0.0187.

As for RRIRARPPRLPRPRPRPTNLPRP, the “shrunken log2 fold change” value worked out at 0.0653.

Turning to RRIRCRPPRLPRPRPRPLTLPRP, the “shrunken log2 fold change” value was -0.582.

With RRIRIRPPRLPRPRPRPPAFPRP, the “shrunken log2 fold change” value was -0.155.

As to RRIRDRPPRLPRPRPRPQITPRP, the “shrunken log2 fold change” value is -0.0201.

Turning to RRIRLRPPRLPRPRPRPCTAPRP, the “shrunken log2 fold change” value is -0.139.

In the case of RRIRMRPPRLPRPRPRPSRKPRP, the “shrunken log2 fold change” value amounted to 0.148.

With RRIRTRPPRLPRPRPRPGNCPRP, the “shrunken log2 fold change” value worked out at 0.0747.

In the case of RRIRDRPPRLPRPRPRPIVLPRP, the “shrunken log2 fold change” value was -0.176.

Consider RRIRHRPPRLPRPRPRPGRNPRP, for which the “shrunken log2 fold change” value is -0.31.

In the case of RRIRSRPPRLPRPRPRPVSAPRP, the “shrunken log2 fold change” value was 2.53.

With RRIRERPPRLPRPRPRPGTDPRP, the “shrunken log2 fold change” value is 8.37e-05.

For the sequence RRIRNRPPRLPRPRPRPTLRPRP, the “shrunken log2 fold change” value was 0.334.

In the case of RRIRYRPPRLPRPRPRPVQQPRP, the “shrunken log2 fold change” value is -0.00101.

As for RRIRDRPPRLPRPRPRPPAPPRP, the “shrunken log2 fold change” value was 1.05.

With RRIRQRPPRLPRPRPRPGACPRP, the “shrunken log2 fold change” value stood at 0.206.

As for RRIRKRPPRLPRPRPRPTQEPRP, the “shrunken log2 fold change” value amounted to 0.294.

Regarding RRIRERPPRLPRPRPRPFPRPRP, the “shrunken log2 fold change” value worked out at 0.087.

As to RRIRNRPPRLPRPRPRPDGPPRP, the “shrunken log2 fold change” value was determined as 0.01.

As to RRIRSRPPRLPRPRPRPNIDPRP, the “shrunken log2 fold change” value was -0.204.

On to RRIRQRPPRLPRPRPRPYDHPRP, for which the “shrunken log2 fold change” value is -0.534.

RRIRTRPPRLPRPRPRPLLDPRP: the “shrunken log2 fold change” value was determined as 0.214.

As to RRIRTRPPRLPRPRPRPNRAPRP, the “shrunken log2 fold change” value was -0.244.

With RRIRYRPPRLPRPRPRPKMQPRP, the “shrunken log2 fold change” value is -0.344.

As to RRIRGRPPRLPRPRPRPECRPRP, the “shrunken log2 fold change” value is 1.32.

As for RRIRRRPPRLPRPRPRPYLEPRP, the “shrunken log2 fold change” value was -0.298.

Regarding RRIRSRPPRLPRPRPRPAPYPRP, the “shrunken log2 fold change” value worked out at 0.265.

For the sequence RRIRERPPRLPRPRPRPEWAPRP, the “shrunken log2 fold change” value came out at 0.103.

On to RRIRQRPPRLPRPRPRPFYWPRP, for which the “shrunken log2 fold change” value is -0.418.

Regarding RRIRQRPPRLPRPRPRPMNMPRP, the “shrunken log2 fold change” value came to 0.0227.

For the sequence RRIRHRPPRLPRPRPRPGVPPRP, the “shrunken log2 fold change” value is 0.191.

As to RRIRPRPPRLPRPRPRPEHCPRP, the “shrunken log2 fold change” value was -0.034.

For RRIRVRPPRLPRPRPRPQMKPRP, the “shrunken log2 fold change” value was -0.0794.

For the sequence RRIRIRPPRLPRPRPRPVPPPRP, the “shrunken log2 fold change” value turned out to be 0.144.

On to RRIRYRPPRLPRPRPRPSVPPRP, for which the “shrunken log2 fold change” value is -0.497.

Regarding RRIRLRPPRLPRPRPRPCWFPRP, the “shrunken log2 fold change” value was -0.21.

In the case of RRIRSRPPRLPRPRPRPILKPRP, the “shrunken log2 fold change” value is -0.469.

As for RRIRNRPPRLPRPRPRPNYHPRP, the “shrunken log2 fold change” value was -0.801.

Turning to RRIRSRPPRLPRPRPRPMVWPRP, the “shrunken log2 fold change” value turned out to be 0.0214.

Regarding RRIRARPPRLPRPRPRPNCIPRP, the “shrunken log2 fold change” value was -0.113.

As for RRIRCRPPRLPRPRPRPEMWPRP, the “shrunken log2 fold change” value turned out to be 0.166.

As to RRIRERPPRLPRPRPRPKDKPRP, the “shrunken log2 fold change” value was -0.15.

In the case of RRIRNRPPRLPRPRPRPSYTPRP, the “shrunken log2 fold change” value is -1.13.

For the sequence RRIRYRPPRLPRPRPRPCAYPRP, the “shrunken log2 fold change” value was -0.0775.

For RRIRSRPPRLPRPRPRPAIQPRP, the “shrunken log2 fold change” value was -0.21.

Turning to RRIRYRPPRLPRPRPRPEYRPRP, the “shrunken log2 fold change” value is -0.00979.

In the case of RRIRYRPPRLPRPRPRPFIPPRP, the “shrunken log2 fold change” value is -0.296.

Regarding RRIRHRPPRLPRPRPRPWWDPRP, the “shrunken log2 fold change” value is -0.0461.

As to RRIRPRPPRLPRPRPRPRGEPRP, the “shrunken log2 fold change” value came to 0.646.

Regarding RRIRRRPPRLPRPRPRPSLIPRP, the “shrunken log2 fold change” value is -0.118.

Take RRIRKRPPRLPRPRPRPTYCPRP: the “shrunken log2 fold change” value came out at 0.135.

Consider RRIRERPPRLPRPRPRPQSSPRP, for which the “shrunken log2 fold change” value is -0.533.

RRIRCRPPRLPRPRPRPWNHPRP: the “shrunken log2 fold change” value was -0.939.

For RRIRWRPPRLPRPRPRPTGMPRP, the “shrunken log2 fold change” value came to 0.117.

Regarding RRIRERPPRLPRPRPRPQCQPRP, the “shrunken log2 fold change” value is 0.158.

As to RRIRDRPPRLPRPRPRPDGRPRP, the “shrunken log2 fold change” value came out at 0.655.

On to RRIRYRPPRLPRPRPRPEFDPRP, for which the “shrunken log2 fold change” value was -0.0306.

For RRIRRRPPRLPRPRPRPGKCPRP, the “shrunken log2 fold change” value was -0.283.

In the case of RRIRCRPPRLPRPRPRPWIRPRP, the “shrunken log2 fold change” value was -0.374.

RRIRHRPPRLPRPRPRPPTCPRP: the “shrunken log2 fold change” value is 0.0978.

Consider RRIRYRPPRLPRPRPRPMKLPRP, for which the “shrunken log2 fold change” value is -0.58.

As for RRIRSRPPRLPRPRPRPGCFPRP, the “shrunken log2 fold change” value was 0.225.

RRIRFRPPRLPRPRPRPYSLPRP: the “shrunken log2 fold change” value is -0.00881.

RRIRIRPPRLPRPRPRPMTSPRP: the “shrunken log2 fold change” value is -0.0513.

Consider RRIRERPPRLPRPRPRPAHHPRP, for which the “shrunken log2 fold change” value was -0.338.

For the sequence RRIRHRPPRLPRPRPRPKIWPRP, the “shrunken log2 fold change” value was -0.0285.

For the sequence RRIRPRPPRLPRPRPRPTRWPRP, the “shrunken log2 fold change” value is -0.0766.

As to RRIRHRPPRLPRPRPRPEHCPRP, the “shrunken log2 fold change” value worked out at 0.0155.

For RRIRARPPRLPRPRPRPVAKPRP, the “shrunken log2 fold change” value was determined as 0.577.
